The results in this text go back to patent publication US20220072157.

For the data set, the target named is C3b, P01024.
C3b, P01024, sequence (P01024 whole entry, looked up): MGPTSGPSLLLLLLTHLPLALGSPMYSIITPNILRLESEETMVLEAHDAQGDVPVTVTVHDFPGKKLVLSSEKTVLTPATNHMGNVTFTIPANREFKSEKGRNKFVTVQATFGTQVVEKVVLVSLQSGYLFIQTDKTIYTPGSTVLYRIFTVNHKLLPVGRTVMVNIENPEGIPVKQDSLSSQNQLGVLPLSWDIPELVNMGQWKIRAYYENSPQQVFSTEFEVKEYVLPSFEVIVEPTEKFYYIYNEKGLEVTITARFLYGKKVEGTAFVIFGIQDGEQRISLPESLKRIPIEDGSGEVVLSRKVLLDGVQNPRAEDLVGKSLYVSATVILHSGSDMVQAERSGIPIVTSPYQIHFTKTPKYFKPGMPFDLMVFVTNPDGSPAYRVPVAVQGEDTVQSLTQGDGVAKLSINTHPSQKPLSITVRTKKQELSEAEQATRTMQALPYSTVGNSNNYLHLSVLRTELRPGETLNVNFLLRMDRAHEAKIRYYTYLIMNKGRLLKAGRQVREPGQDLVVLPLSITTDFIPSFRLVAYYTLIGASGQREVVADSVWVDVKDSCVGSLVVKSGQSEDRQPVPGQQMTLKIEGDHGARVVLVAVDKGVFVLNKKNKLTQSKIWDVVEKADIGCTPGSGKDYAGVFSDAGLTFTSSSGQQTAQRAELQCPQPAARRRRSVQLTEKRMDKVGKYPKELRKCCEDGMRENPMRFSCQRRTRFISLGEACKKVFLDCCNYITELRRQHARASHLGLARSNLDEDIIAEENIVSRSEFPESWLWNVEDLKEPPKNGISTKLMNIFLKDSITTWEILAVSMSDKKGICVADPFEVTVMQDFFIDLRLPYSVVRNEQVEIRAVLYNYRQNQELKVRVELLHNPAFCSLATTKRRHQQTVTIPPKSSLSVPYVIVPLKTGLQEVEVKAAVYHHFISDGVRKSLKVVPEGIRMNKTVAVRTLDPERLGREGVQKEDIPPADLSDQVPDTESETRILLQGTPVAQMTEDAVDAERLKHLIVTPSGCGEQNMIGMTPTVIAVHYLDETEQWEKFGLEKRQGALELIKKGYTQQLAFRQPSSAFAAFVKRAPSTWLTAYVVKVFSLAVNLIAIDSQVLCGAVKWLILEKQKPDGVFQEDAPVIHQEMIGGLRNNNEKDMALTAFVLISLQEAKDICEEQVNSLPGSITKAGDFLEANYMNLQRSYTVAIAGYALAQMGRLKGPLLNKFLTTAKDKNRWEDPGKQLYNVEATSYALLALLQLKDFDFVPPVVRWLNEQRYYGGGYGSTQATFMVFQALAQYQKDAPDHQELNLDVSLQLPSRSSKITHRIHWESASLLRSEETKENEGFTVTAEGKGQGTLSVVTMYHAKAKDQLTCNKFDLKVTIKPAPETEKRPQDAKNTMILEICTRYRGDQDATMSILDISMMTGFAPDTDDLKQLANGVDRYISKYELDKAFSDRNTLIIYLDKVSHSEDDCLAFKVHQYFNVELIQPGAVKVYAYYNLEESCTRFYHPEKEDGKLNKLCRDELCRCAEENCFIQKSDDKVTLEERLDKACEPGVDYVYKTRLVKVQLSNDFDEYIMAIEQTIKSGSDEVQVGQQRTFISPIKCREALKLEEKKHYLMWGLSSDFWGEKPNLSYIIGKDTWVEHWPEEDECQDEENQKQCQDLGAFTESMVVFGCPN

B1: Complement Factor I (CFI) (protein)
chain: KVTYTSQEDLVEKKCLAKKYTHLSCDKVFCQPWQRCIEGTCVCKLPYQCPKNGTAVCATNRRSFPTYCQQKSLECLHPGTKFLNNGTCTAEGKFSVSLKHGNTDSEGIVEVKLVDQDKTMFICKSSWSMREANVACLDLGFQQGADTQRRFKLSDLSINSTECLHVHCRGLETSLAECTFTKRRTMGYQDFADVVCYTQKADSPMDDFFQCVNGKYISQMKACDGINDCGDQSDELCCKACQGKGFHCKSGVCIPSQYQCNGEVDCITGEDEVGCAGFASVTQEETEILTADMDAERRRIKSLLPKLSCGVKNRMHIRRKRIVGGKRAQLGDLPWQVAIKDASGITCGGIYIGGCWILTAAHCLRASKTHRYQIWTTVVDWIHPDLKRIVIEYVDRIIFHENYNAGTYQNDIALIEMKKDGNKKDCELPRSIPACVPWSPYLFQPNDTCIVSGWGREKDNERVFSLQWGEVKLISNCSKFYGNRFYEKEMECAGTYDGSIDACKGDSGGPLVCMDANNVTYVWGVVSWGENCGKPEFPGVYTKVANYFDWISYHVGRPFISQYNV
B1: the “cleavage of C3b to iC3b quantified by ELISA (cofactor assay; CFI and C3b fixed, CFH or FHL1 titrated)” value was “a minimum functional CFI:CFH/FHL1 molar ratio is 1:2”.
